Results as given in PMC8633019 (2021).

Target: SM α-actin (Homo sapiens, UniProt P62736)
Experiment: TIRF microscopy polymerization assay

B1: MRTF-A (protein)
chain: MPPLKSPAAFHEQRRSLERARTEDYLKRKIRSRPERSELVRMHILEETSAEPSLQAKQLKLKRARLADDLNEKIAQRPGPMELVEKNILPVESSLKEAIIVGQVNYPKVADSSSFDEDSSDALSPEQPASHESQGSVPSPLEARVSEPLLSATSASPTQVVSQLPMGRDSREMLFLAEQPPLPPPPLLPPSLTNGTTIPTAKSTPTLIKQSQPKSASEKSQRSKKAKELKPKVKKLKYHQYIPPDQKQDRGAPPMDSSYAKILQQQQLFLQLQILNQQQQQHHNYQAILPAPPKSAGEALGSSGTPPVRSLSTTNSSSSSGAPGPCGLARQNSTSLTGKPGALPANLDDMKVAELKQELKLRSLPVSGTKTELIERLRAYQDQISPVPGAPKAPAATSILHKAGEVVVAFPAARLSTGPALVAAGLAPAEVVVATVASSGVVKFGSTGSTPPVSPTPSERSLLSTGDENSTPGDTFGEMVTSPLTQLTLQASPLQILVKEEGPRAGSCCLSPGGRAELEGRDKDQMLQEKDKQIEALTRMLRQKQQLVERLKLQLEQEKRAQQPAPAPAPLGTPVKQENSFSSCQLSQQPLGPAHPFNPSLAAPATNHIDPCAVAPGPPSVVVKQEALQPEPEPVPAPQLLLGPQGPSLIKGVAPPTLITDSTGTHLVLTVTNKNADSPGLSSGSPQQPSSQPGSPAPAPSAQMDLEHPLQPLFGTPTSLLKKEPPGYEEAMSQQPKQQENGSSSQQMDDLFDILIQSGEISADFKEPPSLPGKEKPSPKTVCGSPLAAQPSPSAELPQAAPPPPGSPSLPGRLEDFLESSTGLPLLTSGHDGPEPLSLIDDLHSQMLSSTAILDHPPSPMDTSELHFVPEPSSTMGLDLADGHLDSMDWLELSSGGPVLSLAPLSTTAPSLFSTDFLDGHDLQLHWDSCL
  Kd: 3.3 µM
